Where two headings read alike, the source gives them in different places. No end group written: not given here. *: point of attachment. Biotin = O=C1N[C@H]2[C@H](CS[C@H]2CCCCC(=O)*)N1
Legend:
[1] = target: T1, KIX domain of CBP coactivator (KIX region 586-672) (UniProt P45481 586-672); experiment: BLI
[2] = target: T1, KIX domain of CBP coactivator (KIX …); experiment: BLI; remark: listed apart in the source

Binder	Kd [1]	Kd [2]
Biotin-GSSSTQLEMVTELLG [c-Myc peptide (c-Myc 9aaTAD), Biotin-GSSS-TQLEMVTELLG]	2160 ± 1170 nM	
Biotin-GSSSEPPSWVTEMLLEN [N-Myc peptide (N-Myc 9aaTAD), Biotin-GSSS-EPPSWVTEMLLEN]	880 ± 110 nM	
Biotin-GSSGDVSWDTLDLDDLD [Sp1-Ac peptide (acidic form of Sp1 9aaTAD), Biotin-GSS-GDVSWDTLDLDDLD]		9770 ± 1570 nM
Biotin-GSNILPSDIMDFVLKNT [MLL peptide (MLL 9aaTAD), Biotin-GS-NILPSDIMDFVLKNT]	1170 ± 210 nM	

Source: paper doi:10.1101/2024.03.15.585150 (bioRxiv, 2024)
